Article PMC2064084 (The Journal of Cell Biology, 2007)

T1: C448Y/E442Q Spastin (human, UniProt Q9UBP0 228-616, E442Q | C448Y)
T1 sequence: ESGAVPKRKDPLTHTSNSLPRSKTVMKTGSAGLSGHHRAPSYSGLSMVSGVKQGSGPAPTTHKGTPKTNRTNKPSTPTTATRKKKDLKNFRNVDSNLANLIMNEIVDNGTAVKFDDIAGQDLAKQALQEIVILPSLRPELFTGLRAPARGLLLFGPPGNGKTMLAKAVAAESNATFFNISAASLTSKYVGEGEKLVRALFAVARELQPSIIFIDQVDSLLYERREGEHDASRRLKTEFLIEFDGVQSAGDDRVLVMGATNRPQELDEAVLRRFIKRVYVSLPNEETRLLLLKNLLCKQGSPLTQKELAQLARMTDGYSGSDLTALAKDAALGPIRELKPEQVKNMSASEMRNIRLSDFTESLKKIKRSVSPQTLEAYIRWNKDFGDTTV


Columns and labels:
AUC = target: the molecule itself; test: AUC
SEC = target: the molecule itself; test: SEC
C448Y/E442Q Spastin = target: T1, C448Y/E442Q Spastin; test: pull-down

| Binder | binding result (SEC) | other results |
| --- | --- | --- |
| E442Q Spastin (enzyme) ESGAVPKRKDPLTHTSNSLPRSKTVMKTGSAGLSGHHRAPSYSGLSMVSGVKQGSGPAPTTHKGTPKTNRTNKPSTPTTATRKKKDLKNFRNVDSNLANLIMNEIVDNGTAVKFDDIAGQDLAKQALQEIVILPSLRPELFTGLRAPARGLLLFGPPGNGKTMLAKAVAAESNATFFNISAASLTSKYVGEGEKLVRALFAVARELQPSIIFIDQVDSLLCERREGEHDASRRLKTEFLIEFDGVQSAGDDRVLVMGATNRPQELDEAVLRRFIKRVYVSLPNEETRLLLLKNLLCKQGSPLTQKELAQLARMTDGYSGSDLTALAKDAALGPIRELKPEQVKNMSASEMRNIRLSDFTESLKKIKRSVSPQTLEAYIRWNKDFGDTTV | – | stoichiometry N (AUC): 6 |
| R451G/E442Q Spastin (enzyme) ESGAVPKRKDPLTHTSNSLPRSKTVMKTGSAGLSGHHRAPSYSGLSMVSGVKQGSGPAPTTHKGTPKTNRTNKPSTPTTATRKKKDLKNFRNVDSNLANLIMNEIVDNGTAVKFDDIAGQDLAKQALQEIVILPSLRPELFTGLRAPARGLLLFGPPGNGKTMLAKAVAAESNATFFNISAASLTSKYVGEGEKLVRALFAVARELQPSIIFIDQVDSLLCERGEGEHDASRRLKTEFLIEFDGVQSAGDDRVLVMGATNRPQELDEAVLRRFIKRVYVSLPNEETRLLLLKNLLCKQGSPLTQKELAQLARMTDGYSGSDLTALAKDAALGPIRELKPEQVKNMSASEMRNIRLSDFTESLKKIKRSVSPQTLEAYIRWNKDFGDTTV | binds | – |
| A457E/E442Q Spastin (enzyme) ESGAVPKRKDPLTHTSNSLPRSKTVMKTGSAGLSGHHRAPSYSGLSMVSGVKQGSGPAPTTHKGTPKTNRTNKPSTPTTATRKKKDLKNFRNVDSNLANLIMNEIVDNGTAVKFDDIAGQDLAKQALQEIVILPSLRPELFTGLRAPARGLLLFGPPGNGKTMLAKAVAAESNATFFNISAASLTSKYVGEGEKLVRALFAVARELQPSIIFIDQVDSLLCERREGEHDESRRLKTEFLIEFDGVQSAGDDRVLVMGATNRPQELDEAVLRRFIKRVYVSLPNEETRLLLLKNLLCKQGSPLTQKELAQLARMTDGYSGSDLTALAKDAALGPIRELKPEQVKNMSASEMRNIRLSDFTESLKKIKRSVSPQTLEAYIRWNKDFGDTTV | binds | – |
| GST–tubulin tail (GST fused to the C-terminal 104 amino acids of murine α-tubulin), ending in Tyr (domain or fragment) not shown | – | binding result (C448Y/E442Q Spastin): binds |
